Reference: patent US20020165128A1, “Compositions and methods for proteolytically inactivating infectious agents using lactoferrin and related molecules” (priority 1998, published 2002)
Like-named read-outs stand apart in the source and are kept apart here.

T1: H. influenzae Hap adhesin (Haemophilus influenzae, UniProt P45387, S243A)
T1 construct: expressed in transfected cells; host or cells: H. influenzae strain DB117 carrying pJS106
T1 sequence (P45387 26-1394 S243A): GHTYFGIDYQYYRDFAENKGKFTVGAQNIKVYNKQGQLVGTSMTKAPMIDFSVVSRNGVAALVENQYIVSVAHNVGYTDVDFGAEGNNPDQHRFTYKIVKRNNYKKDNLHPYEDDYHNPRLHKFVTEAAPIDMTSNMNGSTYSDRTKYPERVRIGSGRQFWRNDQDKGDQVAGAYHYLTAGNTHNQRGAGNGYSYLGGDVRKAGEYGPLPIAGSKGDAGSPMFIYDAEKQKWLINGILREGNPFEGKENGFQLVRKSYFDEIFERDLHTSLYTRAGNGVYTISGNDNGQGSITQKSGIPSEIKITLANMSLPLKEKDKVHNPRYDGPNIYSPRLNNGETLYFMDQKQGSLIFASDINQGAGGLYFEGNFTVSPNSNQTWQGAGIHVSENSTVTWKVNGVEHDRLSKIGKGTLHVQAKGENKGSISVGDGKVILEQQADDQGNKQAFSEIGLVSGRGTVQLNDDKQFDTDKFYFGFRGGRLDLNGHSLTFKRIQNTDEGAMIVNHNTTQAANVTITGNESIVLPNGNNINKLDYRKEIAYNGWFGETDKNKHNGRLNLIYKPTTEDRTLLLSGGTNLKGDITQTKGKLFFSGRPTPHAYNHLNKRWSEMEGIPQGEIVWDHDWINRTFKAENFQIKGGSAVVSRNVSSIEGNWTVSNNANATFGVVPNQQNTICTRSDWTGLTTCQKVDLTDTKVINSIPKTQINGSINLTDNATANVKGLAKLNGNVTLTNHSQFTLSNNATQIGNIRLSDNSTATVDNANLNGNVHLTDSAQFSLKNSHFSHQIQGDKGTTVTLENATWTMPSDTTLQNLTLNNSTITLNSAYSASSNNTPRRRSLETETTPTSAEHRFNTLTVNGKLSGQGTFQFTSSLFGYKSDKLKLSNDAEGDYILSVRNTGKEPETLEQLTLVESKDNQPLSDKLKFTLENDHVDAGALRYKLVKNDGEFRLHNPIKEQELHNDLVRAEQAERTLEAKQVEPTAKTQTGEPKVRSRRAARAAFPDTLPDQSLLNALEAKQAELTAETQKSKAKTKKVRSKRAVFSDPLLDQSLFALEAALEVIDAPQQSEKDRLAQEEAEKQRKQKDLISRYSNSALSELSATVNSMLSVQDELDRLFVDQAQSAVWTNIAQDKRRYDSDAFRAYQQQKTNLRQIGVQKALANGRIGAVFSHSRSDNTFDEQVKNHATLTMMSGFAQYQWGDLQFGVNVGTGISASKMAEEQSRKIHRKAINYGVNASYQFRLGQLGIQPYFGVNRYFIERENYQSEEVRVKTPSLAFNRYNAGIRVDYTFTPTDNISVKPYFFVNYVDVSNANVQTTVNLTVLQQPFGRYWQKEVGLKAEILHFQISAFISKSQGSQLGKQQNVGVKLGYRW


Experiments:
[1] = target: T1, H. influenzae Hap adhesin; format: cell-based; conditions: DB117/HapS243A, 430 nM
[2] = tested on: H. influenzae Hap adhesin; format: cell-based, Haemophilus influenzae; conditions: DB117 derivatives, 13 μM
[3] = target: H. influenzae IgA1 protease precursor (Haemophilus influenzae, UniProt P44969, S288V)
H. influenzae IgA1 protease precursor, sequence (P44969 26-1694 S288V): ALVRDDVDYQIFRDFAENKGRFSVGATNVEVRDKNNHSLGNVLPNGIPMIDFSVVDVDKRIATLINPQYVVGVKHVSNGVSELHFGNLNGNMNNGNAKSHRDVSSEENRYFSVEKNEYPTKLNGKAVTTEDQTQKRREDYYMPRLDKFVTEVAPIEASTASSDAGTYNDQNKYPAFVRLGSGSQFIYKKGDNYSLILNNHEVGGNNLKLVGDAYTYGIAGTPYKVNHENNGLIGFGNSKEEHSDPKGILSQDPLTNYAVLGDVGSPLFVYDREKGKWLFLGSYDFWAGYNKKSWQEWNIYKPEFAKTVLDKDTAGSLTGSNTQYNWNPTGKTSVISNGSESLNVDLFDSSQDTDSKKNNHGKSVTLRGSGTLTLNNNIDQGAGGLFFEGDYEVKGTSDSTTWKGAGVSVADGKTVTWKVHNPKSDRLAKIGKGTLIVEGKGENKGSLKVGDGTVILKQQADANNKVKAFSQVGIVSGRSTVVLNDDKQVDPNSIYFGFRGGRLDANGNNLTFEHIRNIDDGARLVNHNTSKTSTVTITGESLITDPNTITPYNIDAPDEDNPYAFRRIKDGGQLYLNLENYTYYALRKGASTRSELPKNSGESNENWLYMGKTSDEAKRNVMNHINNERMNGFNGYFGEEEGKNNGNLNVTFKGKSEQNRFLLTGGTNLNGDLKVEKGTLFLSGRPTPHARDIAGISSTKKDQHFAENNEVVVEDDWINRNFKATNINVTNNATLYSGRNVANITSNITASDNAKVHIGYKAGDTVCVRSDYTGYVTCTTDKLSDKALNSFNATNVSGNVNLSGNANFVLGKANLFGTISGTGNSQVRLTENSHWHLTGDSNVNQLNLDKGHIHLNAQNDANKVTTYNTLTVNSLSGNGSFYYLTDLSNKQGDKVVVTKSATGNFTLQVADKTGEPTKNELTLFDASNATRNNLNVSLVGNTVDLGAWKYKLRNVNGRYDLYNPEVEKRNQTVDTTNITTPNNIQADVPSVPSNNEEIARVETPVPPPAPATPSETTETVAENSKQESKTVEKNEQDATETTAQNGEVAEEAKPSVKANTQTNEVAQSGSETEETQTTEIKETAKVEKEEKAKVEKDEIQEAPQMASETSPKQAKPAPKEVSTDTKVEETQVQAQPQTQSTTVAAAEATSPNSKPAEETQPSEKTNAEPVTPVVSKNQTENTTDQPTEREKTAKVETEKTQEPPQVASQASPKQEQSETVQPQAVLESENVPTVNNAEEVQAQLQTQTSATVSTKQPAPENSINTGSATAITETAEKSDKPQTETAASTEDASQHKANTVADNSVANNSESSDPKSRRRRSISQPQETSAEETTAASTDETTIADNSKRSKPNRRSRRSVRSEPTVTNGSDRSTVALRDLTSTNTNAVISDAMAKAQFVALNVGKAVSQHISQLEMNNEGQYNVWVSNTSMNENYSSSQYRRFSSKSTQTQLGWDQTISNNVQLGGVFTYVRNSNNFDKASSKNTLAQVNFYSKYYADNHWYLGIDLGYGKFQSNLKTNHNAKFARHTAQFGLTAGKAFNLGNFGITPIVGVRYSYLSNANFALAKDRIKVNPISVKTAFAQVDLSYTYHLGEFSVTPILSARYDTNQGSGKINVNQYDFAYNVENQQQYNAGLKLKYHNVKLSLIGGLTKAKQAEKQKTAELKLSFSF
Protocol: The Rd strain was grown in brain heart-infusion broth supplemented with hemin (10 μg/ml) and nicotinamide adenine dinucleotide (2 μg/ml) to mid-log phase, and then harvested by centrifugation.
All samples were collected in sterile beakers; within 6 hours of collection they were centrifuged at 10,000×g for 20 min at 4 C to remove lipids and cells. The resulting whey was stored at −70 C and was prepared for use by thawing slowly, without further modifications. 2×10^9 H. influenzae cells were resuspended in 1 ml of the unmodified human milk whey and incubated at 37 C with gentle mixing. Samples were removed at intervals between 2 minutes and 1 hour. Whole cells and supernatants were examined by Western immunoblot using antisera directed against all domains of the preprotein.
Mid-log phase Rd3-13 bacteria were incubated in milk whey, and aliquots were removed at the times shown.
The antiserum used was anti-Rd3-13, which reacts with IgAp, IgAa, and IgAb.

[4] = cited from earlier work

Molecule | proteolysis of Hap [1] | Hap degradation products [2] | removal of IgA protease precursor ([3]; Rd3-13, after 15 minutes) | removal of IgA protease precursor ([3]; Rd3-13, after two hours) | shelf life ([4]; original sealed packaging, stored below 20° C., max 75% relative humidity) | Iron binding: spectrophotometric method at 465 nm (on solids) ([4]; typical analysis) [%] | pH (2%, 20° C.) ([4]; typical analysis)
A. awamori recombinant lactoferrin: Aspergillus awamori recombinant human lactoferrin provided by Agennix Corporation (protein, UniProt P02788 20-710, looked up, expressed in Aspergillus awamori) Lactotransferrin: GRRRSVQWCAVSQPEATKCFQWQRNMRKVRGPPVSCIKRDSPIQCIQAIAENRADAVTLDGGFIYEAGLAPYKLRPVAAEVYGTERQPRTHYYAVAVVKKGGSFQLNELQGLKSCHTGLRRTAGWNVPIGTLRPFLNWTGPPEPIEAAVARFFSASCVPGADKGQFPNLCRLCAGTGENKCAFSSQEPYFSYSGAFKCLRDGAGDVAFIRESTVFEDLSDEAERDEYELLCPDNTRKPVDKFKDCHLARVPSHAVVARSVNGKEDAIWNLLRQAQEKFGKDKSPKFQLFGSPSGQKDLLFKDSAIGFSRVPPRIDSGLYLGSGYFTAIQNLRKSEEEVAARRARVVWCAVGEQELRKCNQWSGLSEGSVTCSSASTTEDCIALVLKGEADAMSLDGGYVYTAGKCGLVPVLAENYKSQQSSDPDPNCVDRPVEGYLAVAVVRRSDTSLTWNSVKGKKSCHTAVDRTAGWNIPMGLLFNQTGSCKFDEYFSQSCAPGSDPRSNLCALCIGDEQGENKCVPNSNERYYGYTGAFRCLAENAGDVAFVKDVTVLQNTDGNNNEAWAKDLKLADFALLCLDGKRKPVTEARSCHLAMAPNHAVVSRMDKVERLKQVLLHQQAKFGRNGSDCPDKFCLFQSETKNLLFNDNTECLARLHGKTTYEKYLGPQYVAGITNLKKCSTSPLLEACEFLRK | partial proteolysis of Hap | generated two products | – | – | – | – | –
DMV Lactoferrin: commercially available bovine milk lactoferrin powder, DMV International Nutritionals, Lot 10022340 (protein, UniProt P24627 20-708, looked up) Lactotransferrin: APRKNVRWCTISQPEWFKCRRWQWRMKKLGAPSITCVRRAFALECIRAIAEKKADAVTLDGGMVFEAGRDPYKLRPVAAEIYGTKESPQTHYYAVAVVKKGSNFQLDQLQGRKSCHTGLGRSAGWIIPMGILRPYLSWTESLEPLQGAVAKFFSASCVPCIDRQAYPNLCQLCKGEGENQCACSSREPYFGYSGAFKCLQDGAGDVAFVKETTVFENLPEKADRDQYELLCLNNSRAPVDAFKECHLAQVPSHAVVARSVDGKEDLIWKLLSKAQEKFGKNKSRSFQLFGSPPGQRDLLFKDSALGFLRIPSKVDSALYLGSRYLTTLKNLRETAEEVKARYTRVVWCAVGPEEQKKCQQWSQQSGQNVTCATASTTDDCIVLVLKGEADALNLDGGYIYTAGKCGLVPVLAENRKSSKHSSLDCVLRPTEGYLAVAVVKKANEGLTWNSLKDKKSCHTAVDRTAGWNIPMGLIVNQTGSCAFDEFFSQSCAPGADPKSRLCALCAGDDQGLDKCVPNSKEKYYGYTGAFRCLAEDVGDVAFVKNDTVWENTNGESTADWAKNLNREDFRLLCLDGTRKPVTEAQSCHLAVAPNHAVVSRSDRAAHVKQVLLHQQALFGKNGKNCPDKFCLFKSETKNLLFNDNTECLAKLGGRPTYEEYLGTEYVTAIANLKKCSTSPLLEACAFLTR | – | – | virtually no precursor was removed | only a trace of the precursor was removed | at least three years | 76 | 5.7
